The source of these data is US20170158747A1.

Holding throughout (experiment): cell-based or functional assay
Experiment [1] deals with mouse IL10 receptor on mouse cells (whole blood, colon) (mouse) (UniProt Q61727).
Experiment [2] deals with cynomolgus monkey IL10 receptor on cynomolgus whole blood cells (cynomolgus monkey).
Experiment [3] addresses human IL10 receptor (IL10R1/R2 receptor complex) on human whole blood cells (human) (UniProt Q13651).

Sequence of mouse IL10 receptor on mouse cells (whole blood, colon) (mouse) (Q61727 17-575, chain 1 of 2): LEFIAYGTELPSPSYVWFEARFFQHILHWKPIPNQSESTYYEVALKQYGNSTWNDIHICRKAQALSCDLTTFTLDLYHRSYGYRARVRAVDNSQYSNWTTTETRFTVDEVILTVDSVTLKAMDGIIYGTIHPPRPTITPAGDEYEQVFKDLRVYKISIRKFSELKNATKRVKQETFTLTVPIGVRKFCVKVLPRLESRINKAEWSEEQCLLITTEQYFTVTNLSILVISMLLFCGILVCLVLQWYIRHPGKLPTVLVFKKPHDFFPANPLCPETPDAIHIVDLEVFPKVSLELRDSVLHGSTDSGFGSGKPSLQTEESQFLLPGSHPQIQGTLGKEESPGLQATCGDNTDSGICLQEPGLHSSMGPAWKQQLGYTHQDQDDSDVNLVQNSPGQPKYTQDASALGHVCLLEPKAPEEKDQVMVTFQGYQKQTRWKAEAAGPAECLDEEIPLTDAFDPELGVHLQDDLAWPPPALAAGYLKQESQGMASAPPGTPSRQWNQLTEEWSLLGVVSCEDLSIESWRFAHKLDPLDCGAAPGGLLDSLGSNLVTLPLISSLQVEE
Sequence of mouse IL10 receptor on mouse cells (whole blood, colon) (mouse) (Q61190 20-349, chain 2 of 2, further chain): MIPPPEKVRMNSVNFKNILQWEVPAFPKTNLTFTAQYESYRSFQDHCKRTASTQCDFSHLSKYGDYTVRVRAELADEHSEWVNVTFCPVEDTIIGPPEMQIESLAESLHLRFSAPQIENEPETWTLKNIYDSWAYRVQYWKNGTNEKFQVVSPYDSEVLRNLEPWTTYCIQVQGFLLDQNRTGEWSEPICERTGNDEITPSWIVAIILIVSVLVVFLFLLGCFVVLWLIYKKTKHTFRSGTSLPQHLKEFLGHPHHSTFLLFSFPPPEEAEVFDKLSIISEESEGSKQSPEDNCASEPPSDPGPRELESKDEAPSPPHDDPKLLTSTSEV
Sequence of human IL10 receptor (IL10R1/R2 receptor complex) on human whole blood cells (human) (Q13651 22-578, chain 1 of 2): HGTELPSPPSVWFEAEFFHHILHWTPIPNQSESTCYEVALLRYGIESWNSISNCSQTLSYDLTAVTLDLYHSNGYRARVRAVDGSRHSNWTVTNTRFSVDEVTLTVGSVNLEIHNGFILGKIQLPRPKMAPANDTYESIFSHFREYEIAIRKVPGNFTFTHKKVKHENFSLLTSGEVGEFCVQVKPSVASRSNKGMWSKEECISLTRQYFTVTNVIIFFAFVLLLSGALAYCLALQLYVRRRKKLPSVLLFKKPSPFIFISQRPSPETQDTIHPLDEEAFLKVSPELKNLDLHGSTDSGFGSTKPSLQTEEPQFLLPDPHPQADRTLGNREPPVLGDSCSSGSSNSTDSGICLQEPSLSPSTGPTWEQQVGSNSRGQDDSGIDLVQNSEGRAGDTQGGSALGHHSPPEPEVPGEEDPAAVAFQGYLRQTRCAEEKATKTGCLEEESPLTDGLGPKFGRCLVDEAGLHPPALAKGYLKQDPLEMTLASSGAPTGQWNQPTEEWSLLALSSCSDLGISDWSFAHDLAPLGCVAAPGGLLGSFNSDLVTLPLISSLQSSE
Sequence of human IL10 receptor (IL10R1/R2 receptor complex) on human whole blood cells (human) (Q08334 20-325, chain 2 of 2, further chain): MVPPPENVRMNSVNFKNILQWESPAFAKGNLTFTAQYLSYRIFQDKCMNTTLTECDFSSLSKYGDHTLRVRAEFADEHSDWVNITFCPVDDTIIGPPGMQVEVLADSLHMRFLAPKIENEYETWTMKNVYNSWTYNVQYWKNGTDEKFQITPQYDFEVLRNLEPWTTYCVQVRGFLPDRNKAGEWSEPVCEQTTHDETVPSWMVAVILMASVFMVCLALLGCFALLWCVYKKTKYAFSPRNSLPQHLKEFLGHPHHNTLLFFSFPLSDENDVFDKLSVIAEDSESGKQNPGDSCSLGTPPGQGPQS

Consider “recombinant human IL10 (from UniProt P22301 19-178) (ligand)”, for which, in experiment [1], the IC30, inhibition of LPS-induced TNFα production, ex vivo mouse whole blood came out at 0.57 pM; the IC50, inhibition of LPS-induced TNFα production, ex vivo mouse whole blood was 1.7 pM; the IC90, inhibition of LPS-induced TNFα production, ex vivo mouse whole blood came to 15 pM. In addition, in experiment [2], the IC30, inhibition of LPS-induced TNFα production, ex vivo cynomolgus whole blood was determined as 0.44 pM; the IC50, inhibition of LPS-induced TNFα production, ex vivo cynomolgus whole blood turned out to be 0.65 pM; the IC90, inhibition of LPS-induced TNFα production, ex vivo cynomolgus whole blood is 1.9 pM. Also, in experiment [3], the IC30, inhibition of LPS-induced TNFα production, ex vivo human whole blood worked out at 1.3 pM; the IC50, inhibition of LPS-induced TNFα production, ex vivo human whole blood was determined as 2.8 pM; the IC90, inhibition of LPS-induced TNFα production, ex vivo human whole blood stood at 22.8 pM.
